Measured values from paper PMC9482650, “Quantitative fragmentomics allow affinity mapping of interactomes” (Nature Communications, 2022).

T1: GRIP1_2, Q9Y3R0
T1 sequence (Q9Y3R0 145-248, limits assumed, looked up): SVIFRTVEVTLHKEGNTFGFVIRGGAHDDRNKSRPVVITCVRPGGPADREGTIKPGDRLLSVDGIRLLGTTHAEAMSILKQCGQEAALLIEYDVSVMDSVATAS

T2: RAPGEF6, Q8TEU7
T2 sequence (Q8TEU7 525-625, limits assumed, looked up): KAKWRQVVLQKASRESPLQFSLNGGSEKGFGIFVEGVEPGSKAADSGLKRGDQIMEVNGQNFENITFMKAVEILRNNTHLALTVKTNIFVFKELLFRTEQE

T3: MPDZ_5, O75970
T3 sequence (O75970 695-796, limits assumed, looked up): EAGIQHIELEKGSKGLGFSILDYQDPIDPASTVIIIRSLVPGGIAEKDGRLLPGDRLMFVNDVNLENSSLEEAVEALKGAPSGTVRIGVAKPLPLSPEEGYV

T4: MPDZ_12, O75970
T4 sequence (O75970 1857-1958, limits assumed, looked up): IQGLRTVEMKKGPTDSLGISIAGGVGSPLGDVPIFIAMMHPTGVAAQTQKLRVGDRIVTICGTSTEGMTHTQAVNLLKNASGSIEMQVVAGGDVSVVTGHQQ

T5: PTPN13_1, Q12923
T5 sequence (Q12923 1088-1188, limits assumed, looked up): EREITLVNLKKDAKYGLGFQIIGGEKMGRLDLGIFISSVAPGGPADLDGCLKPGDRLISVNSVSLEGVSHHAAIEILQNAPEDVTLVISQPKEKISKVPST

T6: TIAM2, Q8IVF5
T6 sequence (Q8IVF5 885-986, limits assumed, looked up): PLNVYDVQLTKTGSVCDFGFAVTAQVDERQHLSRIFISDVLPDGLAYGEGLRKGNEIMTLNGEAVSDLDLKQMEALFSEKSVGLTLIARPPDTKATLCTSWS

T7: RHPN1, Q8TCX5
T7 sequence (Q8TCX5 508-602, limits assumed, looked up): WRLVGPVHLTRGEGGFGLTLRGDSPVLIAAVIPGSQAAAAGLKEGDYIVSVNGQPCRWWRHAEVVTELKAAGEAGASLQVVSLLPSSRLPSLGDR

T8: APBA1_1, Q02410
T8 sequence (Q02410 651-752, limits assumed, looked up): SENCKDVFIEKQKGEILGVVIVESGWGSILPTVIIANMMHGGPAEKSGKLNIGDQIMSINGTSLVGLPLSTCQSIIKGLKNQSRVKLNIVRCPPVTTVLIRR

T9: PDZD2_2, O15018
T9 sequence (O15018 329-429, limits assumed, looked up): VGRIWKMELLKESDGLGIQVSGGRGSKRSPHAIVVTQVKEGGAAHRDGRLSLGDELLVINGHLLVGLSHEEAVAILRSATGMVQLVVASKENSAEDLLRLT

T10: LNX2_3, Q8N448
T10 sequence (Q8N448 463-564, limits assumed, looked up): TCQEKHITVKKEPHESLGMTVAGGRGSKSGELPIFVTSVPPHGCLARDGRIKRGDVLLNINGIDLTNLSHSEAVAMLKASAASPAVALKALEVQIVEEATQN

B1: PALLS, Q8WX93;Q8WX93-1 (peptide)
chain: NTALVESEDL
B2: SLC9A3, P48764 (peptide)
chain: PAALPESTHM

Molecular target: T1, GRIP1_2, Q9Y3R0
Assay: holdup assay
Parameters: key: below the threshold = too weak to quantify, mostly under pKd 3.1 to 4
Details: plain residues with an end cap or a label only (N-terminal biotin on a linker: ado-ado)

pKd	Binder
below the threshold	B1
below the threshold	B2

Molecular target: MAGI2_2, Q86UL8
Sequence (Q86UL8 410-522): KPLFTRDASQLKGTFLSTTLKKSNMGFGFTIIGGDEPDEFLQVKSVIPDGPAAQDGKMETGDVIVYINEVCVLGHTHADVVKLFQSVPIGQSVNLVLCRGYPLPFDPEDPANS
Assay: holdup assay
Parameters: key: below the threshold = too weak to quantify, mostly under pKd 3.1 to 4
Details: plain residues with an end cap or a label only (N-terminal biotin on a linker: ado-ado)

pKd	Binder
below the threshold	B1
below the threshold	B2

Molecular target: Inadl_1, Q8NI35
Sequence (Q8NI35 113-229): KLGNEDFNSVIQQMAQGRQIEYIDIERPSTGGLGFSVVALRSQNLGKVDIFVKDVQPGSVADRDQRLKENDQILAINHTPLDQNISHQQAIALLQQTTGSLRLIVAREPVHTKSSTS
Assay: holdup assay
Parameters: key: below the threshold = too weak to quantify, mostly under pKd 3.1 to 4
Details: plain residues with an end cap or a label only (N-terminal biotin on a linker: ado-ado)

pKd	Binder
below the threshold	B1
below the threshold	B2

Molecular target: T2, RAPGEF6, Q8TEU7
Assay: holdup assay
Parameters: key: below the threshold = too weak to quantify, mostly under pKd 3.1 to 4
Details: plain residues with an end cap or a label only (N-terminal biotin on a linker: ado-ado)

pKd	Binder
below the threshold	B1
below the threshold	B2

Molecular target: GRIP2_7, Q9C0E4
Sequence (Q9C0E4 934-1023): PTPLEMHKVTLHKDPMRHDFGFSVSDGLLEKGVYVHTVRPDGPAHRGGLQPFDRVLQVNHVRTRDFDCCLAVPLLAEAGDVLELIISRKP
Assay: holdup assay
Parameters: key: below the threshold = too weak to quantify, mostly under pKd 3.1 to 4
Details: plain residues with an end cap or a label only (N-terminal biotin on a linker: ado-ado)

pKd	Binder
below the threshold	B1
below the threshold	B2

Molecular target: T3, MPDZ_5, O75970
Assay: holdup assay
Parameters: key: below the threshold = too weak to quantify, mostly under pKd 3.1 to 4
Details: plain residues with an end cap or a label only (N-terminal biotin on a linker: ado-ado)

pKd	Binder
below the threshold	B1
below the threshold	B2

Molecular target: DLG1_1, Q12959
Assay: holdup assay
Parameters: key: below the threshold = too weak to quantify, mostly under pKd 3.1 to 4
Details: plain residues with an end cap or a label only (N-terminal biotin on a linker: ado-ado)

pKd	Binder
below the threshold	B1
below the threshold	B2

Molecular target: T4, MPDZ_12, O75970
Assay: holdup assay
Parameters: key: below the threshold = too weak to quantify, mostly under pKd 3.1 to 4
Details: plain residues with an end cap or a label only (N-terminal biotin on a linker: ado-ado)

pKd	Binder
below the threshold	B1
below the threshold	B2

Molecular target: DLG4_1, P78352
Sequence (P78352 62-152): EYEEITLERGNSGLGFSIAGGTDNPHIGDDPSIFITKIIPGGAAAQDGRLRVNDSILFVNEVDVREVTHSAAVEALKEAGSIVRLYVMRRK
Assay: holdup assay
Parameters: key: below the threshold = too weak to quantify, mostly under pKd 3.1 to 4
Details: plain residues with an end cap or a label only (N-terminal biotin on a linker: ado-ado)

pKd	Binder
below the threshold	B1
below the threshold	B2

Molecular target: NOS1, P29475
Sequence (P29475 9-101): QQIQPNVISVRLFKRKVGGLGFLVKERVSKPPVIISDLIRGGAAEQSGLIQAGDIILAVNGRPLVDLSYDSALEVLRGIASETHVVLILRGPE
Assay: holdup assay
Parameters: key: below the threshold = too weak to quantify, mostly under pKd 3.1 to 4
Details: plain residues with an end cap or a label only (N-terminal biotin on a linker: ado-ado)

pKd	Binder
below the threshold	B1
below the threshold	B2

Molecular target: LAP2, Q96RT1
Sequence (Q96RT1 other isoform, or with tags, fused parts or gaps): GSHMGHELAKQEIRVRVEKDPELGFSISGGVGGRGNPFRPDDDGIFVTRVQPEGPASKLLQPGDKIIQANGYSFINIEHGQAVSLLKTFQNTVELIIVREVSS
Assay: holdup assay
Parameters: key: below the threshold = too weak to quantify, mostly under pKd 3.1 to 4
Details: plain residues with an end cap or a label only (N-terminal biotin on a linker: ado-ado)

pKd	Binder
below the threshold	B1
below the threshold	B2

Molecular target: T5, PTPN13_1, Q12923
Assay: holdup assay
Parameters: key: below the threshold = too weak to quantify, mostly under pKd 3.1 to 4
Details: plain residues with an end cap or a label only (N-terminal biotin on a linker: ado-ado)

pKd	Binder
below the threshold	B1
below the threshold	B2

Molecular target: DLG4_3, P78352
Sequence (P78352 306-403): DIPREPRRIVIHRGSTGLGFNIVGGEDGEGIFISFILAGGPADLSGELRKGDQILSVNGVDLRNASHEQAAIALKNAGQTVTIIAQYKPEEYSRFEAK
Assay: holdup assay
Parameters: key: below the threshold = too weak to quantify, mostly under pKd 3.1 to 4
Details: plain residues with an end cap or a label only (N-terminal biotin on a linker: ado-ado)

pKd	Binder
below the threshold	B1
below the threshold	B2

Molecular target: T6, TIAM2, Q8IVF5
Assay: holdup assay
Parameters: key: below the threshold = too weak to quantify, mostly under pKd 3.1 to 4
Details: plain residues with an end cap or a label only (N-terminal biotin on a linker: ado-ado)

pKd	Binder
below the threshold	B1
below the threshold	B2

Molecular target: T7, RHPN1, Q8TCX5
Assay: holdup assay
Parameters: key: below the threshold = too weak to quantify, mostly under pKd 3.1 to 4
Details: plain residues with an end cap or a label only (N-terminal biotin on a linker: ado-ado)

pKd	Binder
below the threshold	B1
below the threshold	B2

Molecular target: FRMPD2_1, Q68DX3
Sequence (Q68DX3 770-861): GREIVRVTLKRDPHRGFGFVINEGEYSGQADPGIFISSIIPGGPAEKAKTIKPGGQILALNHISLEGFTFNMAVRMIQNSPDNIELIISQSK
Assay: holdup assay
Parameters: key: below the threshold = too weak to quantify, mostly under pKd 3.1 to 4
Details: plain residues with an end cap or a label only (N-terminal biotin on a linker: ado-ado)

pKd	Binder
below the threshold	B1
below the threshold	B2

Molecular target: T8, APBA1_1, Q02410
Assay: holdup assay
Parameters: key: below the threshold = too weak to quantify, mostly under pKd 3.1 to 4
Details: plain residues with an end cap or a label only (N-terminal biotin on a linker: ado-ado)

pKd	Binder
below the threshold	B1
below the threshold	B2

Molecular target: NHERF4_1, Q86UT5-2
Sequence (Q86UT5 other isoform, or with tags, fused parts or gaps): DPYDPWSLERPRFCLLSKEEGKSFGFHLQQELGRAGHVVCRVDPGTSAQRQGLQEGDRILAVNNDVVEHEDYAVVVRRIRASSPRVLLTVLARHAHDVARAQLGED
Assay: holdup assay
Parameters: key: below the threshold = too weak to quantify, mostly under pKd 3.1 to 4
Details: plain residues with an end cap or a label only (N-terminal biotin on a linker: ado-ado)

pKd	Binder
below the threshold	B1
3.75	B2

Molecular target: FRMPD3, Q5JV73
Sequence (Q5JV73 12-100): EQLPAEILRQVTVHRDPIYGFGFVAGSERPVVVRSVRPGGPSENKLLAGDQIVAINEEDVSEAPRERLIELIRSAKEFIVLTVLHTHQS
Assay: holdup assay
Parameters: key: below the threshold = too weak to quantify, mostly under pKd 3.1 to 4
Details: plain residues with an end cap or a label only (N-terminal biotin on a linker: ado-ado)

pKd	Binder
below the threshold	B1
below the threshold	B2

Molecular target: MAST2, Q6P0Q8
Sequence (Q6P0Q8 1099-1202): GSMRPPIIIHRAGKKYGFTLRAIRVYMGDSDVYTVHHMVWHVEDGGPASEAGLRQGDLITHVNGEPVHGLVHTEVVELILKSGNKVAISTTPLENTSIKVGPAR
Assay: holdup assay
Parameters: key: below the threshold = too weak to quantify, mostly under pKd 3.1 to 4
Details: plain residues with an end cap or a label only (N-terminal biotin on a linker: ado-ado)

pKd	Binder
5.15	B1
5.35	B2

Molecular target: SNX27, Q96L92
Assay: holdup assay
Parameters: key: below the threshold = too weak to quantify, mostly under pKd 3.1 to 4
Details: plain residues with an end cap or a label only (N-terminal biotin on a linker: ado-ado)

pKd	Binder
4.38	B1
below the threshold	B2

Molecular target: T9, PDZD2_2, O15018
Assay: holdup assay
Parameters: key: below the threshold = too weak to quantify, mostly under pKd 3.1 to 4
Details: plain residues with an end cap or a label only (N-terminal biotin on a linker: ado-ado)

pKd	Binder
below the threshold	B1
below the threshold	B2

Molecular target: DLG2_3, Q15700
Assay: holdup assay
Parameters: key: below the threshold = too weak to quantify, mostly under pKd 3.1 to 4
Details: plain residues with an end cap or a label only (N-terminal biotin on a linker: ado-ado)

pKd	Binder
below the threshold	B1
below the threshold	B2

Molecular target: T10, LNX2_3, Q8N448
Assay: holdup assay
Parameters: key: below the threshold = too weak to quantify, mostly under pKd 3.1 to 4
Details: plain residues with an end cap or a label only (N-terminal biotin on a linker: ado-ado)

pKd	Binder
below the threshold	B1
below the threshold	B2

Molecular target: GRIP2_3, Q9C0E4
Sequence (Q9C0E4 238-339): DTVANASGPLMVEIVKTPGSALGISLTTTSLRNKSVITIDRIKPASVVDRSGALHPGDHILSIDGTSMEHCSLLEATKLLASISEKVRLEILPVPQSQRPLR
Assay: holdup assay
Parameters: key: below the threshold = too weak to quantify, mostly under pKd 3.1 to 4
Details: plain residues with an end cap or a label only (N-terminal biotin on a linker: ado-ado)

pKd	Binder
below the threshold	B1
below the threshold	B2

Molecular target: HTRA2, O43464
Sequence (O43464 355-458): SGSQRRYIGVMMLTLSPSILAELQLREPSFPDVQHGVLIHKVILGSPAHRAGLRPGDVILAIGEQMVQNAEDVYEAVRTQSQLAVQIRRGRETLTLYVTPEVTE
Assay: holdup assay
Parameters: key: below the threshold = too weak to quantify, mostly under pKd 3.1 to 4
Details: plain residues with an end cap or a label only (N-terminal biotin on a linker: ado-ado)

pKd	Binder
below the threshold	B1
below the threshold	B2

Molecular target: LNX1_2, Q8TBB1
Sequence (Q8TBB1 371-470): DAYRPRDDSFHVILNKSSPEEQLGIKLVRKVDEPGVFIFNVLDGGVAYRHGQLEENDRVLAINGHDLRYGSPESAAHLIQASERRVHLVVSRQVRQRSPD
Assay: holdup assay
Parameters: key: below the threshold = too weak to quantify, mostly under pKd 3.1 to 4
Details: plain residues with an end cap or a label only (N-terminal biotin on a linker: ado-ado)

pKd	Binder
below the threshold	B1
below the threshold	B2

Molecular target: PARD3_3, Q8TEW0
Sequence (Q8TEW0 582-685): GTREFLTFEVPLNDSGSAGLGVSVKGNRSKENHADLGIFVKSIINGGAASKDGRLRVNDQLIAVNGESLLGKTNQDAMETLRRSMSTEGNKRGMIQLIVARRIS
Assay: holdup assay
Parameters: key: below the threshold = too weak to quantify, mostly under pKd 3.1 to 4
Details: plain residues with an end cap or a label only (N-terminal biotin on a linker: ado-ado)

pKd	Binder
below the threshold	B2
